{"source": "paper PMC11379947", "about": "(Nature Communications, 2024)", "origin": "cited, not measured here", "target": "T1, ICOS (Homo sapiens, UniProt Q9Y6W8)", "T1 sequence (Q9Y6W8 21-199)": "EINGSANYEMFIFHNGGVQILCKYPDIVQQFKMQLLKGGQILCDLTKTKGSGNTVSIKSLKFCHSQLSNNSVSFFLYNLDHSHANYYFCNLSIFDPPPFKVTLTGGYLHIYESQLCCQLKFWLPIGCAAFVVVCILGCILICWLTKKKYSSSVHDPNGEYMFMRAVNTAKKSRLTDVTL", "conditions": "read-out: KD of natural ICOS ligand; cited from earlier work", "data": [{"molecule": "ICOSL: the natural ICOS ligand (protein, UniProt O75144 19-302, looked up) ICOS ligand: DTQEKEVRAMVGSDVELSCACPEGSRFDLNDVYVYWQTSESKTVVTYHIPQNSSLENVDSRYRNRALMSPAGMLRGDFSLRLFNVTPQDEQKFHCLVLSQSLGFQEVLSVEVTLHVAANFSVPVVSAPHSPSQDELTFTCTSINGYPRPNVYWINKTDNSLLDQALQNDTVFLNMRGLYDVVSVLRIARTPSVNIGCCIENVLLQQNLTVGSQTGNDIGERDKITENPVSTGEKNAATWSILAVLCLLVVVAVAIGWVCRDRCLQHSYAGAWAVSPETELTGHV", "values": [{"measurement": "Kd", "result": 722, "unit": "nM"}]}]}
